For one molecule, Kd results are on record in publication PMC5797019 (2017).

The target of this experiment is vp22-RelA302-316 peptide (herpes virus | , UniProt Q04206 302-316). As to the kind of experiment: SPR.

B1: His-SETD6 (enzyme)
chain: MATQAKRPRVAGPVDGGDLDPVACFLSWCRRVGLELSPKVSERAGGRRTRGGARAALTSPPAQVAVSRQGTVAGYGMVARESVQAGELLFVVPRAALLSQHTCSIGGLLERERVALQSQSGWVPLLLALLHELQAPASRWRPYFALWPELGRLEHPMFWPEEERRCLLQGTGVPEAVEKDLANIRSEYQSIVLPFMEAHPDLFSLRVRSLELYHQLVALVMAYSFQEPLEEEEDEKEPNSPVMVPAADILNHLANHNANLEYSANCLRMVATQPIPKGHEIFNTYGQMANWQLIHMYGFVEPYPDNTDDTADIQMVTVREAALQGTKTEAERHLVYERWDFLCKLEMVGEEGAFVIGREEVLTEEELTTTLKVLCMPAEEFRELKDQDGGGDDKREEGSLTITNIPKLKASWRQLLQNSVLLTLQTYATDLKTDQGLLSNKEVYAKLSWREQQALQVRYGQKMILHQLLELTS
As usually defined, the Kd is the equilibrium constant for the complex coming apart. A low value points to a tighter complex. As to B1, the Kd came to 1100 nM.
